Source: patent publication US20220135649A1 (University of California, published 2022)
Numbering of substitutions follows the chain as printed. Numbers in names are those of the source. Ends that are not written are not given here.

T1: wild-type soluble CD40L fragment (residues 118-261) with no N-terminal KGD motif (human, UniProt P29965 118-261)
T1 construct: also called WT CD40L; WT sCD40L; not shown: His tag from the PET28a vector (Ni-NTA purification, anti-His detection)
T1 sequence: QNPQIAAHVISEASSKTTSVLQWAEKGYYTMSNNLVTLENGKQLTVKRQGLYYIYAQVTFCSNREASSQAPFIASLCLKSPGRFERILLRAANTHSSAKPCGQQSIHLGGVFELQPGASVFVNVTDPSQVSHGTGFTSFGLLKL

B1: CD40L HIGMS1 mutant H224Y (soluble fragment) (ligand)
chain: T1 sequence with H107Y
notes: not shown: His tag from the PET28a vector (Ni-NTA purification, anti-His detection)
B2: CD40L HIGMS1 mutant G226A (soluble fragment) (ligand)
chain: T1 sequence with G109A
notes: as for B1
B3: CD40L HIGMS1 mutant G227V (soluble fragment) (ligand)
chain: T1 sequence with G110V
notes: as for B1
B4: CD40L HIGMS1 mutant T176I (soluble fragment) (ligand)
chain: T1 sequence with T59I
notes: Printed as T1761, read as T176I; also called T1761 (so in the source); not shown: His tag from the PET28a vector (Ni-NTA purification, anti-His detection)
B5: CD40L HIGMS1 mutant L258S (soluble fragment) (ligand)
chain: T1 sequence with L141S
notes: as for B1
B6: CD40L HIGMS1 mutant Q174R (soluble fragment) (ligand)
chain: T1 sequence with Q57R
notes: as for B1
B7: CD40L G252E mutant (soluble fragment) (ligand)
chain: T1 sequence with G135E
notes: Mutant of the soluble CD40L fragment; also called dnCD40L; CD40L decoy; not shown: His tag from the PET28a vector (Ni-NTA purification, anti-His detection)
B8: CD40L Y170E mutant (soluble fragment) (ligand)
chain: T1 sequence with Y53E
notes: Mutant of the soluble CD40L fragment; also called Y170 to E; dnCD40L; not shown: His tag from the PET28a vector (Ni-NTA purification, anti-His detection)
B9: CD40L H224E/G226E mutant (soluble fragment) (ligand)
chain: T1 sequence with H107E, G109E
notes: as for B7
B10: site 2 peptide of integrin β3 fused to GST (peptide)
chain: QPNDGQSHVGSDNHYSASTTM
modifications: also: fused to GST, order not given here
notes: also called peptide from site 2 of β3; not shown: glutathione S-transferase fusion partner

molecular target: T2, CD40 fragment (residues 21-144) fused to GST (UniProt P25942 21-144); experiment: ELISA-type CD40 binding (as for FIG. 11)
T2 construct: range 21-144; Made in E. coli BL21 from PGEX2T (BamHI/EcoRI), purified on glutathione-sepharose; also called CD40 fused to GST; not shown: glutathione S-transferase encoded by the PGEX2T vector
T2 sequence (P25942 21-144): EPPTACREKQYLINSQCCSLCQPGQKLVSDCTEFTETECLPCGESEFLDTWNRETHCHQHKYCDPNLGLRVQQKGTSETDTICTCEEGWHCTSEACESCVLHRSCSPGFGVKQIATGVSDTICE

Binding result, binds:
B1
B2
B3
B4
B5
B6

molecular target: T2, CD40 fragment (residues 21-144) fused …; experiment: ELISA-type: immobilized CD40 (21-144)-GST, CD40L mutant in solution

Binding result, binds:
B7
B8
B9

molecular target: T1, wild-type soluble CD40L fragment …; experiment: ELISA-type: immobilized CD40L, site 2 peptide fused to GST, bound GST measured

Binding result, binds:
B10
